Results taken from US20170051304A1 (DOW AGROSCIENCES, published 2017).
Numbering of substitutions follows the chain as printed. Where “and” joins values, the source holds several entries; their conditions need not be identical. Equal entries are not always repeated. Where no end group is shown, it is not given here.

T1: Large fragment (residues 12-390) of trypsin treated DIG-984 (DIG-177 C88>A; C451>A) (Bacillus thuringiensis) (UniProt Q45757)
T1 sequence: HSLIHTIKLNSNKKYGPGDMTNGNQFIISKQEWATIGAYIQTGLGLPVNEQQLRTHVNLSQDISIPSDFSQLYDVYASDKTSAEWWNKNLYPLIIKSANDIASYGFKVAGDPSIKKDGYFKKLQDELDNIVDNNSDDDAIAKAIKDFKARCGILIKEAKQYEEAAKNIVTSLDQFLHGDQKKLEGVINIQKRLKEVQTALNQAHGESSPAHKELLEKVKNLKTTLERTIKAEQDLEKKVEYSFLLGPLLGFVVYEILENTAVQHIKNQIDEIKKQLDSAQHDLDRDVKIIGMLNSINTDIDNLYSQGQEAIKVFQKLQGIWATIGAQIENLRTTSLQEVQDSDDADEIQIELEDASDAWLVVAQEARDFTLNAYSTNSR

T2: Large fragment (residues 12-390) of trypsin treated DIG-616 (DIG-177 C162>A) (Bacillus thuringiensis, UniProt Q45757 12-390)
T2 sequence: T1 sequence with A77C, C151A

B1: Carboxy terminal peptide 451-475 of trypsin treated DIG-984 (C451>A) (peptide)
peptide: APENNFMIYWYNNSDWYNNSDWYNN
B2: DIG-177 (full length wild type Cry6Aa) (other)
chain: MIIDSKTTLPRHSLIHTIKLNSNKKYGPGDMTNGNQFIISKQEWATIGAYIQTGLGLPVNEQQLRTHVNLSQDISIPSDFSQLYDVYCSDKTSAEWWNKNLYPLIIKSANDIASYGFKVAGDPSIKKDGYFKKLQDELDNIVDNNSDDDAIAKAIKDFKARCGILIKEAKQYEEAAKNIVTSLDQFLHGDQKKLEGVINIQKRLKEVQTALNQAHGESSPAHKELLEKVKNLKTTLERTIKAEQDLEKKVEYSFLLGPLLGFVVYEILENTAVQHIKNQIDEIKKQLDSAQHDLDRDVKIIGMLNSINTDIDNLYSQGQEAIKVFQKLQGIWATIGAQIENLRTTSLQEVQDSDDADEIQIELEDASDAWLVVAQEARDFTLNAYSTNSRQNLPINVISDSCNCSTTNMTSNQYSNPTTNMTSNQYMISHEYTSLPNNFMLSRNSNLEYKCPENNFMIYWYNNSDWYNNSDWYNN
notes: Insecticidal crystal protein; Recombinant from Pseudomonas fluorescens (standard), or expressed in maize, there in part with transit peptides
B3: CTP 2 (Carboxy terminal peptide 2), amino acids 451-475 of SEQ ID NO:2 (peptide)
peptide: CPENNFMIYWYNNSDWYNNSDWYNN
modifications: also: Cys451 (position 1) disulfide-bonded to Cys88 of LF under non-reducing conditions
B4: Carboxy terminal peptide 444-475 of trypsin treated DIG-984 (C451>A) (peptide)
peptide: NSNLEYKAPENNFMIYWYNNSDWYNNSDWYNN
B5: CTP 1 (Carboxy terminal peptide 1), amino acids 444-475 of SEQ ID NO:2 (peptide)
peptide: B4 peptide with A8C
modifications: also: Cys451 (position 8) disulfide-bonded to Cys88 of LF under non-reducing conditions

Experiments:
[1] = molecular target: T1, Large fragment (residues 12-390) of trypsin treated DIG-984 (DIG-177 C88>A; C451>A) (Bacillus thuringiensis); assay: cell-based or functional assay
[2] = molecular target: the molecule itself; assay: SDS-PAGE of undigested full-length DIG-177 (self-association)
Procedure: SDS-PAGE was run following the protocol NuPAGE Bis-Tris gels from Invitrogen Life technologies (Protocol Pub. No. MAN0007894 Rev. A.0, Ref. 2). Briefly, samples were mixed with denaturing sample buffer (Invitrogen) plus 5 mM DTT (for reducing PAGE) or minus DTT (for non reducing PAGE) and heated at 95° C. for 5 minutes. The samples were loaded onto Invitrogen Bis/Tris gel. The gel was run with MOPS or MES running buffer under 200 V for ˜43 minutes. The gel was stained with Coomassie blue staining solution (Bio-Rad) for 30 minutes and de-stained with de-staining solution (7% Acetic acid and 5% Methanol in water) until the background cleared.

[3] = molecular target: T2, Large fragment (residues 12-390) of …; assay: cell-based or functional assay

Binder	% Mortality [1]	% Mortality [3] [%]	also measured
B1	0% and 21.1% and 15%		
B2			binding result [2]: binds
B3		95	
B4	0% and 21.1% and 15%		
B5		95	
